The record followed here is PMC4423205.

The Kd is a measure of binding affinity in units of concentration. High values mean lower affinity, low ones higher affinity.

Assay in all cases: SPR
What all share (conditions): all L-ribonucleotides (L-RNA, mirror image); SPR (Biacore 2000), chemokine immobilized on CM4/CM5, physiological running buffer, 37 C; complex formation in 20 mM HEPES pH 7.4, 100 mM NaCl, 5 mM KCl, 1 mM …
On the technique in general: Surface plasmon resonance follows binding to a sensor surface in real time, without labels.

The target in series [1] is CCL2 S63F S86F (Homo sapiens) (UniProt P13500).
Sequence of CCL2 S63F S86F (Homo sapiens) (P13500 24-99 S86F): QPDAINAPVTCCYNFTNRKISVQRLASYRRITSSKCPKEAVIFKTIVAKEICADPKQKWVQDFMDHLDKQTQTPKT
For series [2], the target named is CCL2 R18A R41A (Homo sapiens) (UniProt P13500).
Sequence of CCL2 R18A R41A (Homo sapiens) (P13500 24-99 R41A): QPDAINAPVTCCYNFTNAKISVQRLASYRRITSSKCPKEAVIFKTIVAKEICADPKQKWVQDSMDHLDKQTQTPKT
The target in series [3] is CCL2 R24A R47A (Homo sapiens) (UniProt P13500).
Sequence of CCL2 R24A R47A (Homo sapiens) (P13500 24-99 R47A): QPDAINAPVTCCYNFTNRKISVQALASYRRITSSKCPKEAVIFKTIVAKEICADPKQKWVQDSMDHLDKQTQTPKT
Series [4] has as its target CCL2 S21P S44P (Homo sapiens) (UniProt P13500).
The target in series [5] is T1, CCL8 (MCP-2) (Homo sapiens) (UniProt P80075).
T1 sequence: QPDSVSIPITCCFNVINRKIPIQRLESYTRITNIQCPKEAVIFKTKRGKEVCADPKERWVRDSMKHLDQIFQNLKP

Series [6] addresses CCL2 K19A K42A (Homo sapiens) (UniProt P13500).
Series [7] concerns the target CCL2 (MCP-1), wild type (Homo sapiens) (UniProt P13500).
Series [8] has as its target CCL11 (eotaxin) (Homo sapiens) (UniProt P51671).
The target in series [9] is CCL2 S63Y S86Y (Homo sapiens) (UniProt P13500).
Sequence of CCL2 S63Y S86Y (Homo sapiens) (P13500 24-99 S86Y): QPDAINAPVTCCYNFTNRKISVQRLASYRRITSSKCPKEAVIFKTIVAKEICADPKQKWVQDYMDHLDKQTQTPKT
The target in series [10] is CCL13 (MCP-4) (Homo sapiens) (UniProt Q99616).
Sequence of CCL13 (MCP-4) (Homo sapiens) (Q99616 24-98): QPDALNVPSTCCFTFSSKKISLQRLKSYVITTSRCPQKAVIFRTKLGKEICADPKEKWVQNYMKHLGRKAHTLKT

Sequence of CCL2 K19A K42A (Homo sapiens) (P13500 24-99 K42A): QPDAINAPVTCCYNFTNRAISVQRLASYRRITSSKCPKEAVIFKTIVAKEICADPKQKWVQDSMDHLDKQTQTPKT
Sequence of CCL11 (eotaxin) (Homo sapiens) (P51671 24-97): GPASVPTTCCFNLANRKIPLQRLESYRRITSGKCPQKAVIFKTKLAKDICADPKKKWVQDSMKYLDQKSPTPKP
Sequence of CCL2 S21P S44P (Homo sapiens) (P13500 24-99 S44P): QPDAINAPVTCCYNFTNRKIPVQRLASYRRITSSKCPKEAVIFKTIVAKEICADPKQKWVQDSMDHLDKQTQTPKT
Sequence of CCL2 (MCP-1), wild type (Homo sapiens) (P13500 24-99): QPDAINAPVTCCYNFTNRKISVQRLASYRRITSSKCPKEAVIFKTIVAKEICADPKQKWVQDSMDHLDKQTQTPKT

In the case of “GCACGUCCCUCACCGGUGCAAGUGAAGCCGUGGCUCUGCG [NOX-E36 L-aptamer (Spiegelmer, without PEG)]”, the Kd stood at 54.4 nM in series [1]; 14.1 nM in [2]; 8280 nM in series [3]; 7.94 nM in series [4]; 3.35 nM in series [5]; 4130 nM in series [6]. In addition, the Kd in [7] was determined as 1.32 nM; in series [8], 3.06 nM; in series [9], 74.4 nM; in series [10], 22 nM.
